In series [1] the test system is HeLa Kyoto. Put plainly: solubility change mitosis vs G1/S (difference of NP-40 vs SDS log2 ratios) (log2 ratio difference); higher = more soluble in mitosis.
For series [2], the system named is HeLa Kyoto. Kind of series: solubility in G1/S (NP-40 vs SDS abundance) (log2 ratio); higher = more soluble. Particulars: cell cycle stage: G1/S.
Series [3] deals with HeLa Kyoto. Put plainly: melting temperature (median over replicates), in situ; higher = more thermally stable.
Series [4] relates to HeLa Kyoto. Kind of series: thermal stability score vs G1/S (z-score of summed log2 fold changes over temperatures); higher = more thermally stable than in G1/S.
Where [5] appears, read: cell cycle stage: early G1 (4.5 h after nocodazole release).

The text below walks through data of the supplement of paper PMC5998384.
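Throughout, for melting temperature (median over replicates), in situ: HeLa Kyoto cells synchronized by double thymidine or nocodazole block, proteins quantified by TMT10plex mass spectrometry, three independent biological replicates.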
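Throughout, for solubility change mitosis vs G1/S (difference of NP-40 vs SDS log2 ratios): synchronized HeLa Kyoto cells (double thymidine block for G1/S, nocodazole release for mitosis), protein amounts in NP-40 versus SDS lysates quantified by mass spectrometry, three biological replicates.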
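Throughout, for solubility in G1/S (NP-40 vs SDS abundance): HeLa Kyoto cells arrested at G1/S by double thymidine block, proteins quantified by TMT10plex mass spectrometry in mild NP-40 versus SDS extracts, three biological replicates.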
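Throughout, for thermal stability score vs G1/S (z-score of summed log2 fold changes over temperatures): synchronized HeLa Kyoto cells, proteins quantified by TMT10plex mass spectrometry, three biological replicates, mitosis taken 0.5 h after nocodazole release, G1/S directly after double thymidine block.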

Take “MELQDPKMNGALPSDAVGYRQEREGFLPSRGPAPGSKPVQFMDFEGKTSFGMSVFNLSNAIMGSGILGLAYAMAHTGVIFFLALLLCIALLSSYSIHLLLTCAGIAGIRAYEQLGQRAFGPAGKVVVATVICLHNVGAMSSYLFIIKSELPLVIGTFLYMDPEGDWFLKGNLLIIIVSVLIILPLALMKHLGYLGYTSGLSLTCMLFFLVSVIYKKFQLGCAIGHNETAMESEALVGLPSQGLNSSCEAQMFTVDSQMSYTVPIMAFAFVCHPEVLPIYTELCRPSKRRMQAVANVSIGAMFCMYGLTATFGYLTFYSSVKAEMLHMYSQKDPLILCVRLAVLLAVTLTVPVVLFPIRRALQQLLFPGKAFSWPRHVAIALILLVLVNVLVICVPTIRDIFGVIGSTSAPSLIFILPSIFYLRIVPSEVEPFLSWPKIQALCFGVLGVLFMAVSLGFMFANWATGQSRMSGH [SLC38A5]”: the “solubility change mitosis (log2)” value in series [1] is -0.0437. In series [2], the “solubility in G1/S (log2)” value is -0.0136. Also, the values for the melting temperature in series [3] (cell cycle stage: G1/S) and in series [3] (cell cycle stage: mitosis) were 56.1 °C and 53.1 °C, respectively. Besides, the thermal stability score in series [4] (setting [5]) is -1.85; in series [4] (cell cycle stage: mitosis) it was -3.24.
For “MELRVGNRYRLGRKIGSGSFGDIYLGTDIAAGEEVAIKLECVKTKHPQLHIESKIYKMMQGGVGIPTIRWCGAEGDYNVMVMELLGPSLEDLFNFCSRKFSLKTVLLLADQMISRIEYIHSKNFIHRDVKPDNFLMGLGKKGNLVYIIDFGLAKKYRDARTHQHIPYRENKNLTGTARYASINTHLGIEQSRRDDLESLGYVLMYFNLGSLPWQGLKAATKRQKYERISEKKMSTPIEVLCKGYPSEFATYLNFCRSLRFDDKPDYSYLRQLFRNLFHRQGFSYDYVFDWNMLKFGASRAADDAERERRDREERLRHSRNPATRGLPSTASGRLRGTQEVAPPTPLTPTSHTANTSPRPVSGMERERKVSMRLHRGAPVNISSSDLTGRQDTSRMSTSQIPGRVASSGLQSVVHR [CSNK1D]”, in series [1], the “solubility change mitosis (log2)” value is -0.0573. The “solubility in G1/S (log2)” value in series [2] was -0.067. In addition, the melting temperature turned out to be 50.1 °C in series [3] (cell cycle stage: G1/S) and 50.9 °C in series [3] (cell cycle stage: mitosis). The thermal stability score in series [4] (setting [5]) was -0.73; in series [4] (cell cycle stage: mitosis), -0.371.
As to “MELRVLLCWASLAAALEETLLNTKLETADLKWVTFPQVDGQWEELSGLDEEQHSVRTYEVCDVQRAPGQAHWLRTGWVPRRGAVHVYATLRFTMLECLSLPRAGRSCKETFTVFYYESDADTATALTPAWMENPYIKVDTVAAEHLTRKRPGAEATGKVNVKTLRLGPLSKAGFYLAFQDQGACMALLSLHLFYKKCAQLTVNLTRFPETVPRELVVPVAGSCVVDAVPAPGPSPSLYCREDGQWAEQPVTGCSCAPGFEAAEGNTKCRACAQGTFKPLSGEGSCQPCPANSHSNTIGSAVCQCRVGYFRARTDPRGAPCTTPPSAPRSVVSRLNGSSLHLEWSAPLESGGREDLTYALRCRECRPGGSCAPCGGDLTFDPGPRDLVEPWVVVRGLRPDFTYTFEVTALNGVSSLATGPVPFEPVNVTTDREVPPAVSDIRVTRSSPSSLSLAWAVPRAPSGAVLDYEVKYHEKGAEGPSSVRFLKTSENRAELRGLKRGASYLVQVRARSEAGYGPFGQEHHSQTQLDESEGWREQLALIAGTAVVGVVLVLVVIVVAVLCLRKQSNGREAEYSDKHGQYLIGHGTKVYIDPFTYEDPNEAVREFAKEIDVSYVKIEEVIGAGEFGEVCRGRLKAPGKKESCVAIKTLKGGYTERQRREFLSEASIMGQFEHPNIIRLEGVVTNSMPVMILTEFMENGALDSFLRLNDGQFTVIQLVGMLRGIASGMRYLAEMSYVHRDLAARNILVNSNLVCKVSDFGLSRFLEENSSDPTYTSSLGGKIPIRWTAPEAIAFRKFTSASDAWSYGIVMWEVMSFGERPYWDMSNQDVINAIEQDYRLPPPPDCPTSLHQLMLDCWQKDRNARPRFPQVVSALDKMIRNPASLKIVARENGGASHPLLDQRQPHYSAFGSVGEWLRAIKMGRYEESFAAAGFGSFELVSQISAEDLLRIGVTLAGHQKKILASVQHMKSQAKPGTPGGTGGPAPQY [EPHB4]”, the “solubility change mitosis (log2)” value in series [1] was -0.108. In addition, the “solubility in G1/S (log2)” value in series [2] was 0.0967. Also, the melting temperature in series [3] (cell cycle stage: G1/S) turned out to be 49.4 °C; in series [3] (cell cycle stage: mitosis) it was 48.9 °C. Moreover, the thermal stability score is 1.38 in series [4] (setting [5]) and -0.755 in series [4] (cell cycle stage: mitosis).
Take “MELSDANLQTLTEYLKKTLDPDPAIRRPAEKFLESVEGNQNYPLLLLTLLEKSQDNVIKVCASVTFKNYIKRNWRIVEDEPNKICEADRVAIKANIVHLMLSSPEQIQKQLSDAISIIGREDFPQKWPDLLTEMVNRFQSGDFHVINGVLRTAHSLFKRYRHEFKSNELWTEIKLVLDAFALPLTNLFKATIELCSTHANDASALRILFSSLILISKLFYSLNFQDLPEFFEDNMETWMNNFHTLLTLDNKLLQTDDEEEAGLLELLKSQICDNAALYAQKYDEEFQRYLPRFVTAIWNLLVTTGQEVKYDLLVSNAIQFLASVCERPHYKNLFEDQNTLTSICEKVIVPNMEFRAADEEAFEDNSEEYIRRDLEGSDIDTRRRAACDLVRGLCKFFEGPVTGIFSGYVNSMLQEYAKNPSVNWKHKDAAIYLVTSLASKAQTQKHGITQANELVNLTEFFVNHILPDLKSANVNEFPVLKADGIKYIMIFRNQVPKEHLLVSIPLLINHLQAESIVVHTYAAHALERLFTMRGPNNATLFTAAEIAPFVEILLTNLFKALTLPGSSENEYIMKAIMRSFSLLQEAIIPYIPTLITQLTQKLLAVSKNPSKPHFNHYMFEAICLSIRITCKANPAAVVNFEEALFLVFTEILQNDVQEFIPYVFQVMSLLLETHKNDIPSSYMALFPHLLQPVLWERTGNIPALVRLLQAFLERGSNTIASAAADKIPGLLGVFQKLIASKANDHQGFYLLNSIIEHMPPESVDQYRKQIFILLFQRLQNSKTTKFIKSFLVFINLYCIKYGALALQEIFDGIQPKMFGMVLEKIIIPEIQKVSGNVEKKICAVGITKLLTECPPMMDTEYTKLWTPLLQSLIGLFELPEDDTIPDEEHFIDIEDTPGYQTAFSQLAFAGKKEHDPVGQMVNNPKIHLAQSLHKLSTACPGRVPSMVSTSLNAEALQYLQGYLQAASVTLL [CSE1L]”: the “solubility change mitosis (log2)” value in series [1] is -0.225. Moreover, the “solubility in G1/S (log2)” value in series [2] was -0.0863. Also, the melting temperature in series [3] (cell cycle stage: G1/S) was determined as 50.4 °C; in series [3] (cell cycle stage: mitosis) it was 49.5 °C. Also, the thermal stability score was determined as 1.44 in series [4] (setting [5]) and 2.55 in series [4] (cell cycle stage: mitosis).
Turning to “MELVAGCYEQVLFGFAVHPEPEACGDHEQWTLVADFTHHAHTASLSAVAVNSRFVVTGSKDETIHIYDMKKKIEHGALVHHSGTITCLKFYGNRHLISGAEDGLICIWDAKKWECLKSIKAHKGQVTFLSIHPSGKLALSVGTDKTLRTWNLVEGRSAFIKNIKQNAHIVEWSPRGEQYVVIIQNKIDIYQLDTASISGTITNEKRISSVKFLSESVLAVAGDEEVIRFFDCDSLVCLCEFKAHENRVKDMFSFEIPEHHVIVSASSDGFIKMWKLKQDKKVPPSLLCEINTNARLTCLGVWLDKVADMKESLPPAAEPSPVSKEQSKIGKKEPGDTVHKEEKRSKPNTKKRGLTGDSKKATKESGLISTKKRKMVEMLEKKRKKKKIKTMQ [PAK1IP1]”, the “solubility change mitosis (log2)” value in series [1] was found to be 0.614. Further, in series [2], the “solubility in G1/S (log2)” value was -1.64. In addition, the melting temperature in series [3] (cell cycle stage: G1/S) turned out to be 56.5 °C; in series [3] (cell cycle stage: mitosis), 53.8 °C. The thermal stability score in series [4] (setting [5]) is -1.32; in series [4] (cell cycle stage: mitosis), -5.78.
